Assay results from publication PMC5435990 (Nucleic Acids Research, 2017).
Several values for one entry are separate records, joined by “and”; a condition that tells them apart may be missing. Identical values can stand only once.

How the values were obtained:
[1] = molecular target: the molecule itself; assay: scanning Number and Brightness
[2] = molecular target: the molecule itself; assay: scanning Number and Brightness; remark: listed apart in the source
SEC = molecular target: the molecule itself; assay: SEC

B1: GFP-Mrr D203A catalytic mutant (enzyme)
chain: MTVPTYDKFIEPVLRYLATKPEGAAARDVHEAAADALGLDDSQRAKVITSGQLVYKNRAGWAHDRLKRAGLSQSLSRGKWCLTPAGFDWVASHPQPMTEQETNHLAFAFVNVKLKSRPDAVDLDPKADSPDHEELAKSSPDDRLDQALKELRDAVADEVLENLLQVSPSRFEVIVLDVLHRLGYGGHRDDLQRVGGTGDGGIAGVISLDKLGLEKVYVQAKRWQNTVGRPELQAFYGALAGQKAKRGVFITTSGFTSQARDFAQSVEGMVLVDGERLVHLMIENEVGVSSRLLKVPKLDMDYFE
[1]
  stoichiometry N: 2

B2: GFP-Mrr fusion protein (Mrr, Methylated adenine Recognition and Restriction, fused with GFPmut2) (enzyme)
chain: MTVPTYDKFIEPVLRYLATKPEGAAARDVHEAAADALGLDDSQRAKVITSGQLVYKNRAGWAHDRLKRAGLSQSLSRGKWCLTPAGFDWVASHPQPMTEQETNHLAFAFVNVKLKSRPDAVDLDPKADSPDHEELAKSSPDDRLDQALKELRDAVADEVLENLLQVSPSRFEVIVLDVLHRLGYGGHRDDLQRVGGTGDGGIDGVISLDKLGLEKVYVQAKRWQNTVGRPELQAFYGALAGQKAKRGVFITTSGFTSQARDFAQSVEGMVLVDGERLVHLMIENEVGVSSRLLKVPKLDMDYFE
[2]
  stoichiometry N: 2

B3: Strep-tagged GFP-Mrr (enzyme, Escherichia coli K-12, UniProt P24202 1-304, looked up)
chain: MTVPTYDKFIEPVLRYLATKPEGAAARDVHEAAADALGLDDSQRAKVITSGQLVYKNRAGWAHDRLKRAGLSQSLSRGKWCLTPAGFDWVASHPQPMTEQETNHLAFAFVNVKLKSRPDAVDLDPKADSPDHEELAKSSPDDRLDQALKELRDAVADEVLENLLQVSPSRFEVIVLDVLHRLGYGGHRDDLQRVGGTGDGGIDGVISLDKLGLEKVYVQAKRWQNTVGRPELQAFYGALAGQKAKRGVFITTSGFTSQARDFAQSVEGMVLVDGERLVHLMIENEVGVSSRLLKVPKLDMDYFE
SEC
  stoichiometry N: 4 and 2
